Square brackets hold non-standard residues; d marks the D form. Ends that are not written are not given here. pGlu = O=C1CC[C@@H](C(=O)O)N1
Target: T1, mouse ADAMTS7 (Mus musculus, UniProt Q68SA9)
T1 construct: Full-length mouse Adamts7 1-1857 (Uniprot Q68SA9, WT or E373Q catalytic mutant); expressed in transfected cells; host or cells: Human Coronary Artery Smooth Muscle Cells (HCA-SMC, Lonza), adenovirus 50 MOI
T1 sequence (Q68SA9 221-1657): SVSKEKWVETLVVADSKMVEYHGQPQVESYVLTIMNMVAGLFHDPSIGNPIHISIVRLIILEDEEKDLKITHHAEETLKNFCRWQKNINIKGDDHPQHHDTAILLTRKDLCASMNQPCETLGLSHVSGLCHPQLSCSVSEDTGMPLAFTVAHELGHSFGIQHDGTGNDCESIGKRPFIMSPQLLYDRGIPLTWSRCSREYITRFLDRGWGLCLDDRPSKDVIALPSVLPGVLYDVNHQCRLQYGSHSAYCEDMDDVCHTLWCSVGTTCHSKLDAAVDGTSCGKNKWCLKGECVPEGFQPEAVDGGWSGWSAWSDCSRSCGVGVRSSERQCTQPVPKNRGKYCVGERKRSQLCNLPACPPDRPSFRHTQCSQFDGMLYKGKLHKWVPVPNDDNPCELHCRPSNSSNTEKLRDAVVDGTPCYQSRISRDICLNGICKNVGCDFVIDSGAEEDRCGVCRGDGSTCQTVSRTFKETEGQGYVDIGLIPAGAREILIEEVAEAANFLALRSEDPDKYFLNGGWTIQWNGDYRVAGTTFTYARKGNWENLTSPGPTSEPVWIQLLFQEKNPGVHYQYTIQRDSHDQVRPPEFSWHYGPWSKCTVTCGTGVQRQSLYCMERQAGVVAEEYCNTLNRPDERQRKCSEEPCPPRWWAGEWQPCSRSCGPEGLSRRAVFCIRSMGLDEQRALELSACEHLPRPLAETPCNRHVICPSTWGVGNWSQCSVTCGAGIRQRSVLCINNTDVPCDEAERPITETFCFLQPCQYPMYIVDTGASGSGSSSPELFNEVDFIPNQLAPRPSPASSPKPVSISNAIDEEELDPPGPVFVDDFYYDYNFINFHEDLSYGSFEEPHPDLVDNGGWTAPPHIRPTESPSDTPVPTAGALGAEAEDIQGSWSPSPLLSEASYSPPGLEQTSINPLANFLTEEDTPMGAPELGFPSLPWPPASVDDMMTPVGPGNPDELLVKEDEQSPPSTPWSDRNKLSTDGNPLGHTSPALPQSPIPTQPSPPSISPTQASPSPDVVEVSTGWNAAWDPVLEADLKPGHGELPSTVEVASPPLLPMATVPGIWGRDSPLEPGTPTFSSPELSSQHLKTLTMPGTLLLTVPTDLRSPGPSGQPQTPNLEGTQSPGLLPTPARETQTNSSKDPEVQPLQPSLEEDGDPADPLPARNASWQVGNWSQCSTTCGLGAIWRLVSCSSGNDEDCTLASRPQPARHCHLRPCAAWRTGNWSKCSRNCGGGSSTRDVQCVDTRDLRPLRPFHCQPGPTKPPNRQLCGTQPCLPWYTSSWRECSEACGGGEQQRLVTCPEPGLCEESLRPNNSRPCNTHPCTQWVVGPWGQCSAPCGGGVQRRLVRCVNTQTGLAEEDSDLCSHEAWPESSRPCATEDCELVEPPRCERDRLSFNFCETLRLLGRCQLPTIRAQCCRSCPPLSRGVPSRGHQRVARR
Assay: TMT10 TAILS N-terminomics, SMC1 experiment (Ad-mADAMTS7 WT vs EQ vs Luc, technical replicates, trypsin digest)
Format: cell-based
Settings: TAILS neo-N-terminal peptide abundance; log fold change, Ad-mADAMTS7 WT over Luc
Excerpt: ADAMTS7 Expression, Cell Culture and Preparation of the Secreted Proteins—Full-length mouse Adamts7 1-1857 (Uniprot Q68SA9, WT or E373Q catalytic mutant) with a carboxyl terminal 3xFLAG tag was used to generate custom adenoviruses as previously described. Adeno-CMV-Luciferase (Ad-Luc) from Vector Biolabs was used as a negative control. Human Coronary Artery Smooth Muscle Cells (HCA-SMC) were obtained from Lonza and expanded in Lonza SmGM-2 media in 15 cm tissue culture plates. Twenty-four hours before media collection, near confluent plates were transduced with 50 MOI adenovirus and switched to Lonza Basal SM media with volumes of 20 ml per 15 cm plate. Expression of the Flag tagged ADAMTS7 was confirmed from the media using western blot and detected using the anti-Flag M2-HRP antibody (Sigma, A8592). Collected media was processed by adding protease inhibitors (1 mM EDTA and 1 mM PMSF) and clarified by 500 g×5 min spin at 4 C to pellet cell debris. Cell media supernatants were then passed through a 0.22 um filter and kept chilled. Processed media was then concentrated 50-100× using 3 kDa Centricon Plus-70 filter unit, spun at 3,500 g×60 min at 4 C. Approximately 10% of the processed, concentrated media was set aside for total secretome proteolytic analysis. The remaining 90% of the processed, concentrated media was buffer exchanged into 50 mM HEPES pH 8.0, 150 mM NaCl (2×50 ml) using the 3 kDa Centricon Plus-70 filter unit and concentrated to >2 mg/ml to serve as input for the TAILS experiment. Secretome and TAILS input samples were stored at −80° C.
For the first experiment, referred to as SMC1, 120 ml of media from 6×15 cm dishes was pooled from each condition (Luc, WT, EQ) and processed to produce three separate inputs for the TAILS experiment. Luc, WT and EQ inputs from the SMC1 experiment were each divided into triplicate 400 ug samples to generate technical replicate TAILS data. For the second experiment, referred to as SMC2, media was processed separately in triplicate for each condition (Luc1, Luc2, Luc3, WT1, WT2, WT3, EQ1, EQ2, EQ3) using 60 ml of media from 3×15 cm dishes for each process replicate. Inputs from the SMC2 experiment used process replicates of 300 ug each to generate TAILS data. The third experiment used input from cultured Human umbilical vein endothelial cells (HUVEC) from Lifeline Cell Technology grown in VascuLife Media and transduced in Lifeline Basal EC (+bFGF2 10 ng/ml). The HUVEC experiment used the same strategy as the SMC2 experiment, with 40 ml of media from 2×15 cm dishes for each process replicate and used 200 ug each to generate TAILS data. Inputs for process replicate experiments were restricted to the lowest concentration from the 9 parallel samples for SMC2 or HUVEC.
TMT10 isotopic labeling and negative selection of non-labeled peptides-Sample preparation was performed based on the TAILS protocol from the Overall lab with some modifications. From a single experiment, nine parallel protein samples in 50 mM HEPES pH 8.0, 150 mM NaCl were separately denatured with guanidinium chloride (Sigma, G4505) to reach a final concentration of 2.5M guanidinium chloride and 250 mM HEPES and incubated at 65° C. for 15 min. Reduction was achieved through addition of tris(2-carboxylethyl) phosphine (TCEP) at a final concentration of […] and incubated at 65° C. for 45 min. Alkylation reaction was performed with addition of iodoacetamide (IAA, Sigma, A3221) to a final concentration of 10 mM IAA for 15 min at room temperature in the dark. Following denaturation, reduction and alkylation steps, ten percent of each of the nine parallel protein samples was removed and combined to serve as a pooled reference. Isobaric tags were added to free amine groups using the TMT10plex Isobaric Mass Tagging Kit (ThermoFisher, 90113) with TMT channels randomly assigned to the nine samples and TMT 131 assigned to the pooled reference. […]

Substance | logFC.mWT.over.Lux
ACTB_21 (FAGDDAPR; listed as Homo sapiens) | 1.09
ACTB_105 (LTEAPLNPKANR; listed as Homo sapiens) | 1.88
ADAM9_69 (VIQAEGKEHIIHLER; listed as Homo sapiens) | 1.45
AEBP1_37 (FLEGFLSELEPEPR; listed as Homo sapiens) | 3.23
APLP2_579 (ISETPVDVR; listed as Homo sapiens) | 2.27
CCDC80_66 (LEEPNLQPLQR; listed as Homo sapiens) | 3.84
EFEMP1_124 (AVAGPEMQTGR; listed as Homo sapiens) | 3.84
EFEMP1_125 (VAGPEMQTGR; listed as Homo sapiens) | 1.92
EFHD2_67 (QGIGEPQSPSR; listed as Homo sapiens) | 0.81
FBLN2_259 (ALGPPAPVQAKAR; listed as Homo sapiens) | 1.29
FBN1_29 (LEAGNVKETR; listed as Homo sapiens) | 4.70
FN1_36 (MVQPQSPVAVSQSKPGCYDNGKHYQINQQWER; listed as Homo sapiens) | 3.73
FN1_40 (QSPVAVSQSKPGCYDNGKHYQINQQWER; listed as Homo sapiens) | 3.87
FN1_47 ([code q]SKPGCYD[code n]GKHYQINQQWER; not fully specified; listed as Homo sapiens) | 3.08
FN1_886 (NQESTPVVIQQETTGTPR; listed as Homo sapiens) | 1.70
FN1_1656 (SSSPVTGYR; listed as Homo sapiens) | 1.44
FN1_1731 (FTDVDVDSIKIAWESPQGQVSR; listed as Homo sapiens) | 2.59
FN1_2143 (FEEHGFR; listed as Homo sapiens) | 1.11
HEG1_49 (GAGLELQLER; listed as Homo sapiens) | 1.72
HSPG2_275 (LLPGSVR; listed as Homo sapiens) | 2.87
HSPG2_1937 (SSAGQQVAR; listed as Homo sapiens) | 0.79
HSPG2_2333 (LAYPAGSTQPIR; listed as Homo sapiens) | 1.93
HSPG2_3250 (SPLPWQHR; listed as Homo sapiens) | 1.00
HSPG2_3542 (IAHVELADAGQYR; listed as Homo sapiens) | 0.60
HSPG2_3647 ([pGlu]GKVKAFAHLQVPER; listed as Homo sapiens) | 0.96
HSPG2_3813 (SSGFIGCVR; listed as Homo sapiens) | 0.81
HSPG2_4021 (LNKDGSLR; listed as Homo sapiens) | 0.70
HSPG2_4075 (GCVGEVSVNGKR; listed as Homo sapiens) | 0.77
HSPG2_4133 (DGFKGDLCEHEENPCQLR; listed as Homo sapiens) | 0.63

Next, values leading:

logFC.mWT.over.Lux | Substance
3.02 | ECM1_134 (FGDQSHPEPESWNAAQHCQQDR; listed as Homo sapiens)
1.01 | EHBP1L1_298 (TAPTPAPR; listed as Homo sapiens)
3.46 | FBLN2_260 (LGPPAPVQAKAR; listed as Homo sapiens)
4.89 | FBN1_53 (LKGPNVCGSR; listed as Homo sapiens)
1.87 | FLNA_612 (SVEGPSQAKIECDDKGDGSCDVR; listed as Homo sapiens)
4.79 | FLNA_695 (FTVDAKHGGKAPLR; listed as Homo sapiens)
4.95 | FLNA_1285 (LTQTGGPHVKAR; listed as Homo sapiens)
3.70 | FN1_45 (VSQSKPGCYDNGKHYQINQQWER; listed as Homo sapiens)
2.44 | FN1_281 (SGSGPFTDVR; listed as Homo sapiens)
3.74 | FN1_282 (GSGPFTDVR; listed as Homo sapiens)
0.85 | FN1_1143 (LTPGVEYVYTIQVLR; listed as Homo sapiens)
2.41 | FN1_2217 (FQDTSEYIISCHPVGTDEEPLQFR; listed as Homo sapiens)
0.76 | GALNT2_31 (LAGGAGGGAGR; listed as Homo sapiens)
4.42 | GSN_35 (SQAGAPQGR; listed as Homo sapiens)
1.99 | GSN_413 (HIANVER; listed as Homo sapiens)
1.14 | HLA−C_52 (VDDTQFVR; listed as Homo sapiens)
2.07 | HSPG2_2331 (ANLAYPAGSTQPIR; listed as Homo sapiens)
3.16 | HSPG2_2688 (VADSGEYVCR; listed as Homo sapiens)
1.09 | HSPG2_3672 (SFLPLPTIKDAYR; listed as Homo sapiens)
0.88 | HSPG2_4004 (SAEPLALGR; listed as Homo sapiens)

— patent US20240368668A1, “SUBSTRATES AND BIOMARKERS OF ADAMTS7” (The Broad Institute, Inc., priority 2021, published 2024)
